Experimental data from US20150166627A1 (Sanofi, published 2015).
Like-named read-outs stand apart in the source and are kept apart here. Non-standard residues stand in square brackets, D forms with d. No end group written: not given here. Met(O2) = CS(=O)(=O)CC[C@H](N)C(=O)O; d(αMeK) = C[C@@](N)(CCCCN)C(=O)O; Met(O) = CS(=O)CC[C@H](N)C(=O)O; αMeOrn = C[C@](N)(CCCN)C(=O)O; αMeK = C[C@](N)(CCCCN)C(=O)O; Nle = CCCC[C@H](N)C(=O)O; Aib = CC(C)(N)C(=O)O

B1: SEQ ID NO: 9 (peptide)
peptide: Y[Aib]EGTFTSDLSIQMEKEAVRLFIEWLKAGGPSSGAPPPS-NH2
B2: SEQ ID NO: 19 (peptide)
peptide: Y[Aib]EGTFTSDLSIQLEEEAV[αMeOrn]LFIEWLKAGGPSSGAPPPS-NH2
B3: SEQ ID NO: 12 (peptide)
peptide: Y[Aib]EGTFTSDLSIQ[Nle]EKEAVRLFIEWLKAGGPSSGAPPPSK-NH2
B4: SEQ ID NO: 8 (peptide)
peptide: YXEGTFTSDLSIQMEEEAVRLFIEWLKAGGPSSGAPPPS
modifications: Aib at position 2; C-terminal amide (-NH2)
B5: SEQ ID NO: 13 (peptide)
peptide: Y[Aib]EGTFTSDLSIQ[Met(O)]EKEAVRLFIEWLKAGGPSSGAPPPS-NH2
B6: SEQ ID NO: 20 (peptide)
peptide: Y[Aib]EGTFTSDLSIQLEKEAVRLFIEWLKAGGPSSGAPPPS-NH2
B7: SEQ ID NO: 17 (peptide)
peptide: Y[Aib]EGTFTSDLSIQLEEEAV[αMeK]LFIEWLKAGGPSSGAPPPS-NH2
B8: SEQ ID NO: 15 (peptide)
peptide: Y[Aib]EGTFTSDLSIQLEEEAVRLFIEWLKAGGPSSGAPPPS-NH2
B9: SEQ ID NO: 14 (peptide)
peptide: Y[Aib]EGTFTSDLSIQ[Met(O2)]EKEAVRLFIEWLKAGGPSSGAPPPS-NH2
B10: SEQ ID NO: 10 (peptide)
peptide: Y[Aib]EGTFTSDLSIQLEKEAVRLFIEWLKAGGPSSGAPPPS-NH2
B11: SEQ ID NO: 16 (peptide)
peptide: Y[Aib]EGTFTSDLSIQLEEEAV[Aib]LFIEWLKAGGPSSGAPPPS-NH2
B12: SEQ ID NO: 18 (peptide)
peptide: Y[Aib]EGTFTSDLSIQLEEEAV[d(αMeK)]LFIEWLKAGGPSSGAPPPS-NH2
B13: Tyr(1)Ile(12)-GLP1 (peptide)
peptide: YAEGTFTSDVSIYLEGQAAKEFIAWLVKGR
modifications: ends and bridges not checked

Tests used:
Experiment in all cases: cell-based or functional assay
human GLP-1 receptor [1] = molecular target: T1, human GLP-1 receptor (human, UniProt P43220 24-463)
human glucagon receptor = human glucagon receptor (human, UniProt P47871 26-477)
human GIP receptor [2] = molecular target: T2, human GIP receptor (human, UniProt P48546 22-466)
T2 sequence (looked up): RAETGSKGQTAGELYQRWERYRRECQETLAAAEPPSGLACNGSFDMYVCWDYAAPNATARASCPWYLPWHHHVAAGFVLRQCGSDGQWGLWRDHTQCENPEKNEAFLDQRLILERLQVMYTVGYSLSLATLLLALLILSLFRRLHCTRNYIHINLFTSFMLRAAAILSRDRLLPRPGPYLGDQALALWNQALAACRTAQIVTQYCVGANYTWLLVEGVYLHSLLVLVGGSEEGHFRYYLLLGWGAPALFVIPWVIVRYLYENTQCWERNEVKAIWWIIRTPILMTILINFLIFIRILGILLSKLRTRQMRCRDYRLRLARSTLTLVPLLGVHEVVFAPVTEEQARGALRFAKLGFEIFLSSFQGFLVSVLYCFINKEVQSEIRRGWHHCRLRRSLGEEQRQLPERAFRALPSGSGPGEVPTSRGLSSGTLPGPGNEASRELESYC

human GLP-1 receptor [3] = molecular target: T1, human GLP-1 receptor; remark: listed apart in the source
Target sequence in this assay (P43220 24-463): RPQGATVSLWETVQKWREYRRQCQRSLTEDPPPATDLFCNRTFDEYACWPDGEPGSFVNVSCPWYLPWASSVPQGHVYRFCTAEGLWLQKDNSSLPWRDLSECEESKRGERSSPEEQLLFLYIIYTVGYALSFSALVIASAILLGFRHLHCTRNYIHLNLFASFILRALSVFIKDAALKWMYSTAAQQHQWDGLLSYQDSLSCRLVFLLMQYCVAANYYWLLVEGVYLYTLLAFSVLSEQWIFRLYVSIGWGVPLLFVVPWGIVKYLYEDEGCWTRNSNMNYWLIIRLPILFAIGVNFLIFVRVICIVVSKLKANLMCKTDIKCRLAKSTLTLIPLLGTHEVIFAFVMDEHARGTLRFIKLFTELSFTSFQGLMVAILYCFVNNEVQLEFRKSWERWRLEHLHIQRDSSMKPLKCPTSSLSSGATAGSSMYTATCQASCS

human GIP receptor [4] = molecular target: T2, human GIP receptor; remark: listed apart in the source

human glucagon receptor, sequence (P47871 26-477): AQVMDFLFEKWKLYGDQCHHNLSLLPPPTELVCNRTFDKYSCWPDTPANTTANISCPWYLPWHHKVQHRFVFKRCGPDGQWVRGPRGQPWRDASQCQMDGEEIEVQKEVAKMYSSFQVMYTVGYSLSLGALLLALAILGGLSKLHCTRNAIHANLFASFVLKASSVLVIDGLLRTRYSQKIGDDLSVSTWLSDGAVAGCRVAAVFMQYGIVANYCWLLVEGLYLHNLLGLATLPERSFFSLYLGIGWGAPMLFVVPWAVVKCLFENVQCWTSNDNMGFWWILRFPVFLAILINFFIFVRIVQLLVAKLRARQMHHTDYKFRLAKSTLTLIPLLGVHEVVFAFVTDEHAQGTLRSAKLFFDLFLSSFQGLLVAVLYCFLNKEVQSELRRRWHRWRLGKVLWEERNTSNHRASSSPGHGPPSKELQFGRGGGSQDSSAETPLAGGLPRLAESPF

Binder | EC50 hGLP-1 R [pM], cAMP formation (human GLP-1 receptor [1]) | EC50 hGLUC R [pM], cAMP formation (human glucagon receptor) | EC50 hGIP R [pM], cAMP formation (human GIP receptor [2]) | EC50 hGLP-1 R [pM], cAMP formation (human GLP-1 receptor [3]) | EC50 hGIP R [pM], cAMP formation (human GIP receptor [4])
B1 | 1.1 pM | > 1e+06 pM | 3.1 pM |  | 
B2 |  | > 1e+06 pM | 2.2 pM |  | 
B3 |  | > 1e+06 pM | 8.7 pM |  | 
B4 |  | > 1e+06 pM | 9.8 pM |  | 
B5 | 0.4 pM | > 1e+06 pM | 8.1 pM |  | 
B6 | 1 pM | > 1e+06 pM | 3.9 pM |  | 
B7 | 1.1 pM | > 1e+06 pM | 1.8 pM |  | 
B8 | 1.4 pM | > 1e+06 pM | 7.3 pM |  | 
B9 | 0.6 pM | > 1e+06 pM | 4.1 pM |  | 
B10 |  | > 1e+06 pM | 6.8 pM |  | 
B11 | 1 pM | > 1e+06 pM | 1.5 pM |  | 
B12 | 2 pM | > 1e+06 pM | 36.1 pM |  | 
B13 |  |  |  | 5 pM | 3660 pM
